Consider 4 molecules from patent US20220228161A1 (published 2022).

Experiment [1] addresses Nicotiana benthamiana subtilisin-like serine protease SBT2, recombinant, C-terminal hexahistidine tag. The experiment can be described thus: enzyme inhibition (fluorogenic substrate); pH 5.5, 30°C.
In experiment [2] the target is Nicotiana benthamiana subtilisin-like serine protease SBT1, recombinant, C-terminal hexahistidine tag. The experiment is described as above.
The next experiment addresses gp41 peptide […]. The experiment can be described thus: SPR, antibody captured on Protein A chip, peptide as analyte, 1:1 model. (In general: SPR reads the build-up and loss of mass on a sensor chip optically.)
Experiment [3] addresses T1, Nicotiana benthamiana subtilisin-like serine protease SBT1, recombinant, C-terminal hexahistidine tag.
T1 chain: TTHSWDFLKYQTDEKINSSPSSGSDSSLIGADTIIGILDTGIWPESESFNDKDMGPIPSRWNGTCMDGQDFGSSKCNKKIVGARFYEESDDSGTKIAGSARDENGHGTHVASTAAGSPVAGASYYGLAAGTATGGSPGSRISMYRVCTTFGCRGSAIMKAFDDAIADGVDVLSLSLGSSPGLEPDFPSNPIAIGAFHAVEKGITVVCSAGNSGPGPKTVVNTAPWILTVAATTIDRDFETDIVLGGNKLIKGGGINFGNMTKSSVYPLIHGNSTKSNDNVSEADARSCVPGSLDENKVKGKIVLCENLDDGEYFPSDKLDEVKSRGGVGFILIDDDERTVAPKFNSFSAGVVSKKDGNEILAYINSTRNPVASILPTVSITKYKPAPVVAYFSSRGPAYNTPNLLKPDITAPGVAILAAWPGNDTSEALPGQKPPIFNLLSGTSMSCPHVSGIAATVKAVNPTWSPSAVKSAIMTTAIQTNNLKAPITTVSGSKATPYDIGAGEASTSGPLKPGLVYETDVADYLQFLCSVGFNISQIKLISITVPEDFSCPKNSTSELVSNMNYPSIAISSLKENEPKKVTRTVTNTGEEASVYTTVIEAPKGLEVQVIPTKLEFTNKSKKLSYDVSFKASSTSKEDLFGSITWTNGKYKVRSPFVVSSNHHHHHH
Put plainly: enzyme inhibition (fluorogenic substrate); pH 5.5, 30°C.

For experiment [4], the target named is T2, Nicotiana benthamiana subtilisin-like serine protease SBT2, recombinant, C-terminal hexahistidine tag.
T2 chain: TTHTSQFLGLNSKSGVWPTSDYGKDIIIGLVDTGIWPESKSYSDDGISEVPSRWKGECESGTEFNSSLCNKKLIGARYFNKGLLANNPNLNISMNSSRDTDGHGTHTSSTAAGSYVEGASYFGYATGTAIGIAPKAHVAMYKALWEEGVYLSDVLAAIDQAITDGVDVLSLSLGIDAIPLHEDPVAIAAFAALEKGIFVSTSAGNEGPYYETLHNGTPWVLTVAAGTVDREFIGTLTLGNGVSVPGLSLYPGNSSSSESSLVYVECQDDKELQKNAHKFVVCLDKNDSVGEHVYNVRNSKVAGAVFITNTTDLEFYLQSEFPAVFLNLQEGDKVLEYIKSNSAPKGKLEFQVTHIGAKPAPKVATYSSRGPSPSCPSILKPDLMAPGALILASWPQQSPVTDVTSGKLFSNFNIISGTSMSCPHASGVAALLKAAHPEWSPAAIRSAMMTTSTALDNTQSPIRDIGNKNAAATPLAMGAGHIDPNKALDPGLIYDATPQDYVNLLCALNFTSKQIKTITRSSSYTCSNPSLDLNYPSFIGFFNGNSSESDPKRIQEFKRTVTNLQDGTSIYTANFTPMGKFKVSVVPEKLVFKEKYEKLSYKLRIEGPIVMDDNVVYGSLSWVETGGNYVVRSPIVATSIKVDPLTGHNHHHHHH
Described as above.

Like-named read-outs stand apart in the source and are kept apart here.

One may read the Ki as the equilibrium dissociation constant of an inhibitor or competing ligand from its target. Regarding “S106g065370 (subtilisin propeptide-like inhibitor from S. lycopersicum)”, the Ki in experiment [1] was determined as 27 nM.

Take “S111g018590 (subtilisin propeptide-like inhibitor from S. lycopersicum)”: in experiment [2], the Ki came to 51 nM.

For “cleaved 2F5 (2F5 degradation product after digestion with apoplastic fluid proteases) (antibody)”, in the experiment with gp41 peptide […], the fold reduction of affinity against intact 2F5 was > 20 fold.

B1: Arabidopsis thaliana subtilisin propeptide-like inhibitor 2 (other)
chain: RTLGPAPDNQQMKCYLVNVDFALYHGDCKQYQQLLKKVVHGRSAKDALVYCYKEVMSGFAAKLTAAEAEKLKGEKGISAIDVDHIFSMDVEPHSHGKGY
Turning to B1, the inhibition constant (Ki) was found to be 81 nM in experiment [3] and 45 nM in experiment [4].
